Assay results reported in patent EP2009022A1.

Tests used:
Fc-CD95 (human) = Fc-CD95 (human) (UniProt P25445); experiment: SPR (BIAcore 2000), biotinylated Fc-CD95 on streptavidin chip, ligand in solution, 1:1 model
human CD95 (human) [1] = target: human CD95 (human) (UniProt P25445); experiment: cell-based or functional assay
human CD95 (human) [2] = target: human CD95 (human) (UniProt P25445); experiment: FACS on KB cells, anti-Flag mAb M2 and PE anti-mouse IgG
murine CD95 (murine) = murine CD95 (murine) (UniProt P25446); experiment: FACS on MBL2-CD95 cells, anti-Flag mAb M2 and PE anti-mouse IgG
UniProt P25446, sequence (P25446 22-327): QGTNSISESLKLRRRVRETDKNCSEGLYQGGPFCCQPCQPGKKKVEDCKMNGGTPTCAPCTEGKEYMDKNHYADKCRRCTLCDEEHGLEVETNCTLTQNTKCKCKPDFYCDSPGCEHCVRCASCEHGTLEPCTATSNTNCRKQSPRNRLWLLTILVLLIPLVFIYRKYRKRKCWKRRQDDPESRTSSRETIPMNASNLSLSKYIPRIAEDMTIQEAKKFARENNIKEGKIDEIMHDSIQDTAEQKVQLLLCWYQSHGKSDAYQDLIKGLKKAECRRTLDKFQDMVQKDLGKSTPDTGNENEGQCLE

TRAILR1 (human) = TRAILR1 (human) (UniProt O00220); experiment: cell-based or functional assay
UniProt O00220, sequence (O00220 24-468): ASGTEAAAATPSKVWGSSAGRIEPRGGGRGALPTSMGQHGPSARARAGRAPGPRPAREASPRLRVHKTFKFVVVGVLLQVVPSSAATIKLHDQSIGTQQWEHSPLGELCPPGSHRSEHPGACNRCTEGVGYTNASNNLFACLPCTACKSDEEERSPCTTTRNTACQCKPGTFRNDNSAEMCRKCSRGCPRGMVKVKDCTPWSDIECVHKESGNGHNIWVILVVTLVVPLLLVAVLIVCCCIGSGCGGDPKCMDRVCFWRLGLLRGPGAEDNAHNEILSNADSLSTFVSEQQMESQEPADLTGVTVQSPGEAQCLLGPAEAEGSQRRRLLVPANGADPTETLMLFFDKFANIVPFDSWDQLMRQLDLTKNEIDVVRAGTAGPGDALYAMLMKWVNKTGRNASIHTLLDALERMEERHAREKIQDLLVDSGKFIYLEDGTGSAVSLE

Kd (Fc-CD95 (human)) [µM] | lowest concentration with significant binding (human CD95 (human) [2]) [µg/mL] | lowest concentration with significant binding (murine CD95 (murine)) [µg/mL] | Substance | protection of KB cells from Fc-hCD95L-induced cell death (competition assay) (human CD95 (human) [1]) [ng/mL] | cell death of CHX-sensitized KB cells, no crosslinking (crystal violet) (TRAILR1 (human)) [ng/mL]
0.026 |  |  | Flag-TNC-mCD95L(137-279) (from UniProt P10039 110-139) (ligand) |  | 
0.039 | 0.3 | 0.1 | Flag-hCD95L(137-281) (ligand) | 50 | 
 |  |  | Flag-hTRAIL(95-281) (ligand) |  | 10
 |  |  | mCD95L(137-279) (ligand) | > 1000 | 
